The record followed here is patent US20160130333A1 (published 2016).

The target of this assay is histones. The experiment in a line: ELISA. Background: An ELISA detects its analyte on a solid surface through an enzyme-linked reagent.

B1: mIMMU-H4 (antibody, V domains shown)
VH: QVQLQQSGAELVRPGASVKLSCTASGFNIKDDYLHWVKQRPEQGLEWIGWIDPENGDTEYASKFQGKATITADTSSNTAYLQLSSLTSEDTAVYYCSSPLVHLRTFAYWGQGTLVTVS
VL: DIQLTQSPASLAVSLGQRATISCRASESVDSYDNSLHWFQQKPGQPPKLLIYLASNLESGVPARFSGSGSRTDFTLTIDPVEADDAATYYCQQNNEDPWTFGGGTKLEIKR
On to B1, for which the Kd (as a rule, the equilibrium constant for the complex coming apart) worked out at 6.6 nM.

B2: cIMMU-H4 (antibody, V domains shown)
VH: QVQLQQSGAELVRPGASVKLSCTASGFNIKDDYLHWVKQRPEQGLEWIGWIDPENGDTEYASKFQGKATITADTSSNTAYLQLSSLTSEDTAVYYCSSPLVHLRTFAYWGQGTLVTVSA
VL: DIQLTQSPASLAVSLGQRATISCRASESVDSYDNSLHWFQQKPGQPPKLLIYLASNLESGVPARFSGSGSRTDFTLTIDPVEADDAATYYCQQNNEDPWTFGGGTKLEIKR
As to B2, the Kd is 0.96 nM.
